Reference: patent US6528625

What was measured:
[1] = molecular target: human CCR5 (untagged; endogenous on human leukocytes, parent of the CCR5/CCR2b chimeras, on U87-CD4-CCR5 cells) (human) (UniProt P51681); assay: inhibition of ^125I-RANTES binding to activated T cells (CD3 blasts) by 10 µg/ml mAb
[2] = molecular target: human CCR5 (untagged; endogenous on human leukocytes, parent of the CCR5/CCR2b chimeras, on U87-CD4-CCR5 cells) (human) (UniProt P51681); assay: cell-based or functional assay
[3] = molecular target: FLAG-tagged human CCR5 expressed on L1.2 murine pre-B lymphoma cells (human) (UniProt P51681); assay: cell-based or functional assay
[4] = molecular target: human CCR5 (untagged; endogenous on human leukocytes, parent of the CCR5/CCR2b chimeras, on U87-CD4-CCR5 cells) (human) (UniProt P51681); assay: inhibition of ^125I-MIP-1α binding to activated T cells (CD3 blasts) by 10 µg/ml mAb

Question: For murine monoclonal antibody 2D7, which percent inhibition of ^125I-RANTES binding [1] is on record?
Answer: Its percent inhibition of ^125I-RANTES binding is 95%.

Question: What about the percent inhibition of RANTES and MIP-1α chemotactic responses of T cell lines [2] of the same substance?
Answer: Its percent inhibition of RANTES and MIP-1α chemotactic responses of T cell lines is 60 to 80%.

Question: And the percent inhibition of chemotaxis of activated, IL-2 maintained T cells to MIP-1α [2]?
Answer: The percent inhibition of chemotaxis of activated, IL-2 maintained T cells to MIP-1α was 60 to 80%.

Question: And the mAb concentration giving complete inhibition of chemotaxis of CCR5 L1.2 cells to RANTES, MIP-1α and MIP-1β [3]?
Answer: The mAb concentration giving complete inhibition of chemotaxis of CCR5 L1.2 cells to RANTES, MIP-1α and MIP-1β was 20 µg/mL.

Question: What about the percent inhibition of ^125I-MIP-1α binding [4] of the same substance?
Answer: The percent inhibition of ^125I-MIP-1α binding was 85%.
